± gives the uncertainty stated by the source.

This data set in a line: amyloid nucleation score (Sup35N fusion, yeast selection) (log enrichment); library NNK1; higher = more nucleation; inactive = no reads after selection. The gist of the method: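 Using DiMSum, nucleation scores were taken as the log enrichment of output over input reads, centred on the mode score of non-aggregating sequences. The input and output reads came from Illumina sequencing of plasmid inserts, with sequences under 100 input reads excluded. The yeast were psi-negative, expressed Sup35N fused to peptides of 20 random codons, were induced with 100 μM copper sulfate for 24 hours, and were grown 7 days at 30°C on medium lacking adenine and uracil.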
Consider TFLITRMCYSTVQKKEVVFW, for which the amyloid nucleation score is -0.189 ± 1.2.
LEPNCVLSYTDSFVNQFVTL yielded an amyloid nucleation score of 0.119 ± 0.3.
The figure for NFVICNVMDRISWLCVCNLH is 4.08 ± 0.076; for RSETGMYSAHACLL it is -0.314 ± 1.7; for GWHTQVMVVTSVSMLGVWT it is 0.487 ± 0.24.
LSTNDTSR came in with an amyloid nucleation score of -0.028 ± 0.53.
The figure for ASRAFSVVDYSGLLRGS is 0.498 ± 0.61.
The figure for FNDEHKSSIG is -0.549 ± 0.58.
In the case of SLYTKLAVPLGKWRIGYRLT it was 0.46 ± 0.58; in that of TKNSRTRLASSSLIWNW, -1.45 ± 0.76.
Regarding QHEDISPPKLPIVNSAIPFV, the amyloid nucleation score worked out at 0.335 ± 0.54.
The figure for GVKLYDFVNRCCVMNLLAVK is 0.428 ± 0.47; for IQESVMLVLVDGGVISARL it is 0.106 ± 0.3.
The figure for LMHKDISERDRSCLWL is 0.033 ± 0.5.
The figure for FLVNFGWRFAD is 1.14 ± 0.32; for GVTWLSEISV it is 0.885 ± 0.73.
In the case of SGGCMDSKLSAVG, the amyloid nucleation score turned out to be 0.894 ± 0.51.
The figure for LCTLTVNYRSEHSYFYCINF is -0.319 ± 0.41; for FGDWGCRRRNVSA it is -0.269 ± 0.37.
The figure for IMCISFVFFNLKGYGGTG is 3.11 ± 0.082.
The figure for KSQLRQSTYPS is -0.358 ± 0.82; for LMTRSVIVIRLMEEKSAA it is 0.163 ± 1.4.
Substance YRCGECNSSVMCMGLRCLWM yielded an amyloid nucleation score of 5.87 ± 0.059.
In the case of STCSGISFVCHSTIIIKVTF, the amyloid nucleation score was determined as 3.92 ± 0.12.
In the case of THFRMGKSFVICLGLASYPL, the amyloid nucleation score was 0.374 ± 0.9.
The figure for ISRISVSEEFKGCMGREWVT is 1.1 ± 0.52; for RYSSPSRGTAMFSLLYLYVY it is 0.694 ± 0.97; for GLQKSVEGNYMTFLSFSLAM it is 5.03 ± 0.052.
In the case of PLSVNLKYVYNLVVDLFGLP it was 2.61 ± 0.19.
In turn, IKVLSYISWCGGFEKRCVGG registered an amyloid nucleation score of 1.05 ± 0.46.
With LFTSVYL, the amyloid nucleation score is -0.173 ± 0.53.
The figure for GFYLRYYLGISVRHYNHVIW is 1.19 ± 0.72; for EFKWYFAISDKCYVRLKLIK it is 0.751 ± 0.45.
The figure for GYLIYSWVLVNWNSGLEINK is 2.62 ± 0.17; for DAADMTGLFNRLLCVFEYVW it is 0.797 ± 0.66; for HERDIQSSIGDWNKLSKPCN it is -0.418 ± 0.31.
The figure for LTWLL is 0.992 ± 0.97; for VGLVLKIHVYNYFMETAQQS it is 6.555 ± 0.053.
The substance VSPRFGLSSMGNYQKVLVYI had an amyloid nucleation score of -0.651 ± 1.7.
WNYRGIKYF had an amyloid nucleation score of 0.129 ± 0.39.
In the case of NTCHKIDSTI it was -0.13 ± 0.59; in that of VYSGYSCCAWLLIWTSDGTD, 8.255 ± 0.048; in that of YYIMYYAGSFIRGEMVHRLT, -0.581 ± 0.32.
The figure for YPLVFRIMDVVSPPPHWVLF is -0.219 ± 1.2; for AGVAGL it is -0.661 ± 0.4.
In the case of DAASHYINLCNHSAEFSKVG it was 1.42 ± 0.53.
Substance EITFPRAMWANRTTTMDRIM had an amyloid nucleation score of -0.036 ± 0.4.
In the case of LKWRV it was -0.771 ± 1.1; in that of NQMVWMVELWRTVDCVVLNV, -0.17 ± 0.34.
In the case of ISPVGIIMYQCSAWLTRFRS it was 0.204 ± 0.43; in that of LGSAAISLIVLFLG, 2.64 ± 0.27.
In the case of VVYHVFFWELTNAKHNLPML it was -1.17 ± 2.4.
The substance NLYFIHVSRMIWSNSV displayed an amyloid nucleation score of 5.02 ± 0.075.
The figure for VEGRVSEFGRLHMSCYTGLR is -0.076 ± 0.48; for RCSTPRCSPL it is -0.237 ± 0.62; for NNKDISYGREAGGYEVERKD it is -0.907 ± 1.2.
The figure for PFNGSLFYYVSWVKTNYGYY is 0.225 ± 0.93.
The figure for IMMHSGPRKVPGSFGQTVHD is 0.019 ± 0.68; for IIKFSNDWDVDKFSFGSVLE it is 0.596 ± 0.63.
As to HFVRFRRAMSRHGRVAST, the amyloid nucleation score is -0.979 ± 0.75.
The entry for TSASYRADVWDDGNVLYRLW is “inactive”; for VAYRVFCD it is 0.51 ± 0.36.
In the case of CRYFSSSSGEAGQIFVVICG it was -0.201 ± 0.67.
In the case of IDVWCESRVWRTWVYLGVRV it was 0.903 ± 0.56; in that of NSYLCCIWK, 7.32 ± 0.08; in that of REGATIPWFRCNRLE, -0.167 ± 0.33.
In turn, WNRRGA had an amyloid nucleation score of -0.054 ± 0.35.
The figure for RSLFFV is -0.867 ± 0.86; for LPCMGKLIYVCRSRLEREQS it is 0.498 ± 0.62.
In the case of WDHLRGLTCNVFIMIVKSFF it was 1.4 ± 0.36; in that of IYRAHYAIYSAF, -0.026 ± 0.64; in that of VIAFCSRPDC, 0.425 ± 0.52.
In the case of VMLSSSGYELHVWRVGGSDG, the amyloid nucleation score was 0.093 ± 0.75.
In the case of KIKLMF it was -0.416 ± 1.6; in that of LWNIMVLDIWDRDLCSCIWG, 0.756 ± 0.56.
For the substance YPYRV, the amyloid nucleation score is -1.12 ± 1.2.
In the case of VLHFHVDDMDYNFFSW it was 0.578 ± 0.33; in that of VFAFA, 0.126 ± 0.48; in that of FGNRFEYRFERTN, -0.482 ± 1.1.
In the case of FLLHF it was -0.177 ± 0.62; in that of PSLVQNGSQSTPVEDYIIEY, -0.618 ± 0.65.
In the case of LNQPWYIRIQANIDFNR it was 4.47 ± 0.079.
Substance VVGFYEWGQSREISSLRGGC had an amyloid nucleation score of 0.382 ± 0.58.
With VACRRTSKGEYYFQSMICDL, the amyloid nucleation score result was “inactive”.
The figure for SFEKKSVPNSANLGATVLPN is 0.196 ± 0.38; for LMSEVRPAMLDSSVLRDCYD it is “inactive”.
In the case of KVVRAACCQKMFERVGVHGG it was -0.842 ± 0.94; in that of VDVYFTSAMLSRLGLVGAVA, 0.862 ± 0.64.
In the case of VYFGDLLLKTSYL it was -0.747 ± 1.1.
The substance VYLGRFTPDGVMNYYNYSYV registered an amyloid nucleation score of -0.763 ± 1.4.
The figure for RDSNVGIFHNSR is -1.35 ± 0.87; for NSSKAMKKQVHLLFFRK it is 0.699 ± 0.42.
As for HSIVDSRLSCICILSS, the amyloid nucleation score was 4.16 ± 0.16.
The figure for SDGQNRTTMTYFPSVGWVSS is -1.98 ± 2.7; for SKYDLISRANVLFVSANYRH it is 0.511 ± 0.76; for SSMLSSNRRSALWKQDVSKG it is 0.734 ± 1.1.
For the substance FLKKGERTIF, the amyloid nucleation score was -0.446 ± 1.
In the case of YPNVRSTYGDHSLLSNVAKG it was 0.132 ± 0.66; in that of MLSII, -1.39 ± 1.7.
In the case of QRRALHTL it was -0.069 ± 0.46.
LVLCSFYYDKAWSPESCLME: the amyloid nucleation score is -0.258 ± 0.62.
In the case of QSNSTYYGGSSRSGEKFPLG it was 3.83 ± 0.083; in that of GVDKASYPHSFGEQWLSLSL, 0.844 ± 0.97; in that of RQDAVNNNTCNSISFNP, 0.048 ± 0.52.
In the case of YCWCINNH it was 6.26 ± 0.084; in that of RGNSFIRRY, 0.285 ± 0.47; in that of DRLSAT, 0.272 ± 1.2.
GASFVGTGKWVLTGWKTRRF came in with an amyloid nucleation score of 0.124 ± 0.97.
The figure for SNQQLRWCECVYNGATGKVK is 1.35 ± 0.47.
In the case of SRFDMLSRALRCMK it was 1.35 ± 0.34.
The substance PSSIWNAMFYGYNCMYLLKT returned an amyloid nucleation score of -0.392 ± 0.34.
The figure for RALSVRSRQLG is 0.135 ± 0.97; for IGVKTYYTLFIGSMYFNSKG it is 3.22 ± 0.097.
The figure for QAFSNESVTRDLLCG is -0.957 ± 0.64; for DYTDMYTC it is 0.571 ± 0.5; for SDLCSLLASQRFLRRSGYKL it is “inactive”.
The figure for VKSNFLHSGKIGYTSAVGFG is -1.16 ± 1.9; for MRYLNFLCHCVVVYVVMSAS it is 2.16 ± 0.57; for FHMARKQETTSI it is -0.18 ± 1.7.
Regarding LLVRHEEKG, the amyloid nucleation score came to 0.263 ± 0.42.
On to INSRAIRLAKGDSVSWSSHG, for which the amyloid nucleation score is -0.244 ± 0.32.
The figure for HSRLLASYS is 1.34 ± 0.43.
The figure for IRLGHIQVFVSGRFENRLIF is 0.257 ± 0.56; for YGNLYCQTFLVWCRNIFLLI it is 0.255 ± 0.41.
The figure for TVLWWSSGDSGSCWYYCKIE is -0.177 ± 0.31; for VFVSCIILRRYFYMFLVGPF it is 0.752 ± 0.45; for YIAMYGARTPSCVVKPG it is -0.832 ± 0.55.
As for RWCGKPRICFSISEAVDKLH, the amyloid nucleation score was -0.2 ± 0.21.
In the case of NPRISCFVLQIRSAALSQSV it was -0.007 ± 0.92; in that of MMRTEIARVLCLSLF, 0.077 ± 0.37; in that of DNLNYEMHVLWMCNL, 4.82 ± 0.056.
In the case of GNTVQLGRAGRFHVYDLRGV it was -0.357 ± 0.6.
For TWTLL, the amyloid nucleation score was found to be 1.18 ± 0.63.
As to GRLCCRPVWYTISCKLWVNE, the amyloid nucleation score was 1.04 ± 0.49.
The figure for RLCKKSIHRDVASRFPNEDV is 1.02 ± 0.36; for DRLGDHLKDILVKFYNV it is 0.294 ± 0.99; for CSDCARIGLMSRCGDETW it is 0.132 ± 0.28.
In the case of YLKMFV it was 0.01 ± 0.32; in that of NVRSFWFSGNQSNIGGICWG, 0.204 ± 0.43.
The figure for FRVYVSCVLCNDCVVYHRFE is 7.602 ± 0.072; for YHSSKGCIVCCR it is -0.391 ± 0.24; for LNLTMVGIYINDFL it is 4.69 ± 0.099.

The values above are taken from the supplement of paper PMC12042874.
